Data taken from publication PMC8528823 (2021).

Biological target: SARS-CoV-2 WT RBD (SARS-CoV-2, UniProt P0DTC2 319-541)
Assay: SPR

B1: Mouse Fc (mFc) tagged mink ACE2 (Fc fusion)
chain: QSTTEDLAKTFLEKFNYEAEELSYQNSLASWNYNTNITDENIQKMNIAGAKWSAFYEEESQHAKTYPLEEIQDPIIKRQLRALQQSGSSVLSADKRERLNTILNAMSTIYSTGKACNPNNPQECLLLEPGLDDIMENSKDYNERLWAWEGWRSEVGKQLRPLYEEYVALKNEMARANNYEDYGDYWRGDYEEEWADGYNYSRNQLIEDVEHTFTQIKPLYEHLHAYVRAKLMDAYPSRISPTGCLPAHLLGDMWGRFWTNLYPLMVPFGQKPNIDVTDAMVNQSWDARRIFKEAEKFFVSVGLPNMTEGFWQNSMLTEPGDNRKVVCHPTAWDLGKHDFRIKMCTKVTMDDFLTAHHEMGHIQYDMAYAAQPFLLRNGANEGFHEAVGEIMSLSAATPNHLKNIGLLPPDFSEDSETDINFLLKQALTIVGTLPFTYMLEKWRWMVFKGEIPKEQWMQKWWEMKRDIVGVVEPLPHDETYCDPAALFHVANDYSFIRYYTRTIYQFQFQEALCQIAKHEGPLYKCDISNSREAGQKLHEMLSLGRSKPWTFALERVVGAKTMDVRPLLNYFEPLFTWLKEQNRNSFVGWNTDWSPYADQSIKVRISLKSALGEKAYEWNDNEMYFFQSSIAYAMREYFSKVKKQTIPFVDKDVRVSDLKPRISFNFIVTSPENMSDIIPRADVEEAIRKSRGRINDAFRLDDNSLEFLGIQPTLEPPYQPPVT
- koff: 1.65 s⁻¹
